Reference: PMC3679298

Legend:
[1] = target: HLA-C*03:04 on single-antigen beads; test: Luminex single-antigen HLA bead binding assay
[2] = target: HLA-C*06:02 on single-antigen beads; test: Luminex single-antigen HLA bead binding assay

Substance | Kd [1] [nM] | Kd [2] [nM] | MFI at 20 μg/ml [2] [MFI]
soluble KIR2DL2*003 Fc fusion protein (sKIR2DL2*003) (from UniProt P43627 22-245) | 700 | 24000 | < 500
soluble KIR2DL3*002 Fc fusion protein (sKIR2DL3*002) (from UniProt P43628 22-245) | 1200 |  | 
soluble KIR2DL3*001 Fc fusion protein (sKIR2DL3*001) (from UniProt P43628 22-245) | 1000 |  | 
soluble KIR2DL3*005 Fc fusion protein (sKIR2DL3*005) (from UniProt P43628 22-245) | 100 | 7000 | < 500
soluble KIR2DL2*006 Fc fusion protein (sKIR2DL2*006) (from UniProt P43627 22-245) |  | 4300 | < 500
soluble KIR2DL2*001 Fc fusion protein (sKIR2DL2*001) (from UniProt P43627 22-245) | 200 |  | < 500
